Each block holds one binder with its values, some of them ahead of it. *1 amine or outer side, *2 acyl side, *3 side chain or, on linkers, in order; H or OH if unused. Primed or numbered codes have the meaning given here. [ ]: non-standard residue; d: D form. The star is where a group is joined. βAsp = O=C(O)[C@H](CC(=O)[*:2])N[*:1]; Met(O) = CS(=O)CC[C@H](N)C(=O)O; Hexenoyl(3E) = CC/C=C/CC(=O)*; Asu′ = not defined here
Target: T1, human GRF receptor (human, UniProt Q02643 23-423)
T1 sequence (looked up): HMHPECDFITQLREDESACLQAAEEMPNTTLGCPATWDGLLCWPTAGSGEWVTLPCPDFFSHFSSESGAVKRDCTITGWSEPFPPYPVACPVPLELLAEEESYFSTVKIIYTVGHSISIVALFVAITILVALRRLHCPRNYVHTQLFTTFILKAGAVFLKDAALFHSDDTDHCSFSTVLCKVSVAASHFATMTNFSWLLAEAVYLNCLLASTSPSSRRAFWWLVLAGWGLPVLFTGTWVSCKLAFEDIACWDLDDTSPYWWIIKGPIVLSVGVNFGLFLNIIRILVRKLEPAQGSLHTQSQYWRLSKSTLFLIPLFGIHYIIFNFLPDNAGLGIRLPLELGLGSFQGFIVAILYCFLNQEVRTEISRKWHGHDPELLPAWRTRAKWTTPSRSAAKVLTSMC
Assay: cell-based or functional assay

B1: TH9507 beta-Asp3 (peptide)
peptide: {Hexenoyl(3E)}-YA[βAsp]AIFTNSYRKVLGQLSARKLLQDIMSRQQGESNQERGARARL-NH2
EC50 (nM), alkaline phosphatase reporter gene assay: 4.24 nM
EMAX (%), alkaline phosphatase reporter gene assay: 116%

B2: N-Hex-hGRF[1-44]Met[O]27 amide (peptide)
peptide: {Hexenoyl(3E)}-YADAIFTNSYRKVLGQLSARKLLQDI[Met(O)]SRQQGESNQERGARARL-NH2
EC50 (nM), alkaline phosphatase reporter gene assay: 0.16 nM

B3: TH9507 Asp8 (peptide)
peptide: {Hexenoyl(3E)}-YADAIFTDSYRKVLGQLSARKLLQDIMSRQQGESNQERGARARL-NH2
EC50 (nM), alkaline phosphatase reporter gene assay: 0.08 nM
EMAX (%), alkaline phosphatase reporter gene assay: 114%
SNR (signal to noise ratio), alkaline phosphatase reporter gene assay: 25.3

B5: TH9507 beta-Asp8 (peptide)
peptide: {Hexenoyl(3E)}-YADAIFT[βAsp]SYRKVLGQLSARKLLQDIMSRQQGESNQERGARARL-NH2
EC50 (nM), alkaline phosphatase reporter gene assay: 30 nM
EC50 fold higher than TH9507, reporter gene assay: 500 fold
EMAX (%), alkaline phosphatase reporter gene assay: 120%
SNR (signal to noise ratio), alkaline phosphatase reporter gene assay: 26.9

More lines, now with the values ahead:

EC50 (nM), alkaline phosphatase reporter gene assay: 0.2 nM
EMAX (%), alkaline phosphatase reporter gene assay: 95.7%
SNR (signal to noise ratio), alkaline phosphatase reporter gene assay: 21.3
B4: TH9507 cyclic form at Asp^3 (peptide)
peptide: {Hexenoyl(3E)}-YA[Asu′]AIFTNSYRKVLGQLSARKLLQDIMSRQQGESNQERGARARL-NH2
modifications: reading uncertain

EC50 (nM), alkaline phosphatase reporter gene assay: 0.06 nM
B6: [trans-3-hexenoyl]hGHRH (1-44) amide (peptide)
peptide: {Hexenoyl(3E)}-YADAIFTNSYRKVLGQLSARKLLQDIMSRQQGESNQERGARARL-NH2

Source: patent US20140249083A1 (THERATECHNOLOGIES, published 2014)
